± gives the uncertainty stated by the source.
Assay: self-splicing fitness, log relative to wild type (ln ratio); higher = more splicing; Tetrahymena group I intron in knt gene, E. coli kanamycin selection, DiMSum; sequences stand for … in CUCUCU…GGAGGGAAAAGUUAUCAGGCAUGCACCUGGUAGCUAGUCUUUAAACCAAUAGAUUGCAUCGGUUUAAAAGGCAAGACCGUCAAAUUGCGGGAAAGGGGUCAACAGCCGUUCAGUACCAAGUCUCAGGGGAAACUUUGAGAUGGCCUUGCAAAGGGUAUGGUAAUAAGCUGACGGACAUGGUCCUAACCACGCAGCCAAGUCCUAAGUCAACAGAUCUUCUGUUGAUAUGGAUGCAGUUCACAGACUAAAUGUCGGUCGGGGAAGAUGUAUUCUUCUCAUAAGAUAUAGUCGGACCUCUCCUUAAUGGGAGCUAGCGGAUGAAGUGAUGCAACACUGGAGCCGCUGGGAACUAAUUUGUAUGCGAAAGUAUAUUGAUUAGUUUUGGAGUACUCGUGGUCG
How it was run: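 Fitness was computed with DiMSum as the error-weighted combination of replicate fold changes, kanamycin versus none, each normalised to wild type. The library randomised all eight intron nucleotides of the P1ex region, with the intron placed in the knt kanamycin-resistance gene on pET-22b(+) in E. coli BL21(DE3). Six replicate transformations were grown overnight at 37°C or 30°C on LB agar with or without 25 μg/mL kanamycin, plus 100 μg/mL carbenicillin, 50 μM IPTG and 0.2% rhamnose. Pooled colonies were amplicon-sequenced on an Illumina HiSeq 2500.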

| Sequence | self-splicing fitness (ln) (30 °C) | self-splicing fitness (ln) (37 °C) |
| --- | --- | --- |
| UGGAAGCAAUAUUACGGUAC | -4.18 ± 0.39 | -1.5 ± 0.25 |
| UGGAAGCAAUAUUACGGUAU | -3.09 ± 0.38 | – |
| UGGAAGCAAUAUUACGGUCA | -0.00492 ± 0.13 | 0.828 ± 0.15 |
| UGGAAGCAAUAUUACGGUGC | -2.93 ± 0.3 | -2.86 ± 0.43 |
| UGGAAGCAAUAUUACGUACC | -1.73 ± 0.19 | -0.601 ± 0.23 |
| UGGAAGCAAUAUUACGUAGG | -1.13 ± 0.067 | -1.05 ± 0.092 |
| UGGAAGCAAUAUUACGUAGU | -2.9 ± 0.27 | -1.41 ± 0.2 |
| UGGAAGCAAUAUUACGUAUG | -1.96 ± 0.16 | -0.289 ± 0.14 |
| UGGAAGCAAUAUUACGUGCA | -0.0243 ± 0.057 | -0.187 ± 0.067 |
| UGGCAGCAAUAUUACGAAGC | – | -1.72 ± 0.45 |
| UGGCAGCAAUAUUACGAAGG | -2.93 ± 0.18 | -1.21 ± 0.23 |
| UGGCAGCAAUAUUACGACGG | -0.817 ± 0.15 | 0.837 ± 0.17 |
| UGGCAGCAAUAUUACGACUA | 0.138 ± 0.07 | 0.38 ± 0.1 |
| UGGCAGCAAUAUUACGAGGA | -2.34 ± 0.34 | -1.75 ± 0.26 |
| UGGCAGCAAUAUUACGCAGC | – | -2.2 ± 0.39 |
| UGGCAGCAAUAUUACGCCCU | -0.69 ± 0.27 | – |
| UGGCAGCAAUAUUACGCGCC | – | -2.9 ± 0.19 |
| UGGCAGCAAUAUUACGGAUA | -0.806 ± 0.098 | -0.358 ± 0.11 |
| UGGCAGCAAUAUUACGGGAU | -2.84 ± 0.23 | -2.48 ± 0.23 |
| UGGCAGCAAUAUUACGGGCC | – | -1.78 ± 0.28 |
| UGGCAGCAAUAUUACGUCCG | -0.782 ± 0.095 | -0.304 ± 0.13 |

| Sequence | self-splicing fitness (ln) (30 °C) | self-splicing fitness (ln) (37 °C) |
| --- | --- | --- |
| UGGCAGCAAUAUUACGUCUA | -0.425 ± 0.091 | 0.66 ± 0.11 |
| UGGCAGCAAUAUUACGUGAU | -1.46 ± 0.13 | -1.29 ± 0.17 |
| UGGCAGCAAUAUUACGUGCA | -0.0165 ± 0.1 | -0.0321 ± 0.14 |
| UGGCAGCAAUAUUACGUGCU | -2.71 ± 0.14 | -1.79 ± 0.17 |
| UGGCAGCAAUAUUACGUGGA | -2.38 ± 0.17 | -1.02 ± 0.13 |
| UGGCAGCAAUAUUACGUUGA | -1.43 ± 0.13 | -0.707 ± 0.14 |
| UGGGAGCAAUAUUACGAAGA | -2.99 ± 0.47 | -2.68 ± 0.33 |
| UGGGAGCAAUAUUACGACAU | -3.84 ± 0.039 | -2.9 ± 0.05 |
| UGGGAGCAAUAUUACGAGAG | -3.13 ± 0.32 | -2.85 ± 0.36 |
| UGGGAGCAAUAUUACGAUGG | -2.64 ± 0.18 | -2.77 ± 0.48 |
| UGGGAGCAAUAUUACGAUUU | -3.39 ± 0.3 | – |
| UGGGAGCAAUAUUACGCAAA | – | -2.43 ± 0.45 |
| UGGGAGCAAUAUUACGCGUG | -2.51 ± 0.12 | -1.67 ± 0.12 |
| UGGGAGCAAUAUUACGCUAA | -2.74 ± 0.29 | -1.93 ± 0.31 |
| UGGGAGCAAUAUUACGCUGG | -1.91 ± 0.29 | -1.55 ± 0.35 |
| UGGGAGCAAUAUUACGGACA | -1.7 ± 0.14 | -0.535 ± 0.13 |
| UGGGAGCAAUAUUACGGAUU | -4.21 ± 0.31 | -3.06 ± 0.26 |
| UGGGAGCAAUAUUACGGCAC | – | -0.43 ± 0.35 |
| UGGGAGCAAUAUUACGGCCG | – | -1.37 ± 0.28 |
| UGGGAGCAAUAUUACGGCGA | -1.73 ± 0.36 | -1.23 ± 0.28 |
| UGGGAGCAAUAUUACGUGGU | -2.97 ± 0.35 | -1.56 ± 0.26 |

| Sequence | self-splicing fitness (ln) (30 °C) | self-splicing fitness (ln) (37 °C) |
| --- | --- | --- |
| UGGGAGCAAUAUUACGUUGU | -3.01 ± 0.23 | -2.2 ± 0.34 |
| UGGUAGCAAUAUUACGAAAA | -2.14 ± 0.19 | -0.612 ± 0.17 |
| UGGUAGCAAUAUUACGAACC | -2.54 ± 0.29 | -1.93 ± 0.28 |
| UGGUAGCAAUAUUACGAAGA | -1.45 ± 0.4 | -2.3 ± 0.49 |
| UGGUAGCAAUAUUACGAAUA | -0.911 ± 0.17 | -1.17 ± 0.16 |
| UGGUAGCAAUAUUACGAAUC | -2.14 ± 0.32 | – |
| UGGUAGCAAUAUUACGACCG | -1.22 ± 0.22 | -0.981 ± 0.27 |
| UGGUAGCAAUAUUACGAGGG | – | -3.44 ± 0.33 |
| UGGUAGCAAUAUUACGAUCU | -0.554 ± 0.13 | 0.576 ± 0.18 |
| UGGUAGCAAUAUUACGAUUG | -0.422 ± 0.05 | 0.168 ± 0.073 |
| UGGUAGCAAUAUUACGCAAU | -2.59 ± 0.24 | -2.56 ± 0.33 |
| UGGUAGCAAUAUUACGCAGG | -2.77 ± 0.3 | -2.82 ± 0.48 |
| UGGUAGCAAUAUUACGCAUC | – | -3.68 ± 0.46 |
| UGGUAGCAAUAUUACGCCGA | -1.43 ± 0.45 | -0.492 ± 0.32 |
| UGGUAGCAAUAUUACGCCGU | -1.56 ± 0.27 | -1.42 ± 0.36 |
| UGGUAGCAAUAUUACGCUGG | -2.08 ± 0.2 | -2.52 ± 0.2 |
| UGGUAGCAAUAUUACGCUUU | -1.85 ± 0.12 | -1.46 ± 0.12 |
| UGGUAGCAAUAUUACGGAAC | – | -0.88 ± 0.24 |
| UGGUAGCAAUAUUACGGAGU | -2.76 ± 0.27 | – |
| UGGUAGCAAUAUUACGGCCG | -1.62 ± 0.29 | -0.342 ± 0.32 |
| UGGUAGCAAUAUUACGGGAC | – | -2.89 ± 0.27 |

| Sequence | self-splicing fitness (ln) (30 °C) | self-splicing fitness (ln) (37 °C) |
| --- | --- | --- |
| UGGUAGCAAUAUUACGGGUA | -2.28 ± 0.14 | -0.719 ± 0.12 |
| UGGUAGCAAUAUUACGGUAC | -3.95 ± 0.4 | -1.43 ± 0.27 |
| UGGUAGCAAUAUUACGUAAG | -1.53 ± 0.11 | -0.776 ± 0.16 |
| UGGUAGCAAUAUUACGUACG | -1.02 ± 0.19 | -0.203 ± 0.23 |
| UGGUAGCAAUAUUACGUAUU | -3.07 ± 0.14 | -1.84 ± 0.17 |
| UGGUAGCAAUAUUACGUCCA | -0.714 ± 0.24 | -0.608 ± 0.3 |
| UGGUAGCAAUAUUACGUGAG | -1.05 ± 0.092 | 0.0891 ± 0.11 |
| UGGUAGCAAUAUUACGUGUG | -1.29 ± 0.071 | -0.469 ± 0.082 |
| UGGUAGCAAUAUUACGUGUU | -3.24 ± 0.28 | -1.82 ± 0.29 |
| UGGUAGCAAUAUUACGUUCG | -0.221 ± 0.12 | -0.719 ± 0.14 |
| UGGUAGCAAUAUUACGUUGA | -0.502 ± 0.17 | -0.66 ± 0.15 |
| UGGUAGCAAUAUUACGUUGU | -4.52 ± 0.36 | -2.86 ± 0.26 |
| UGUAAGCAAUAUUACGAGGC | -1.16 ± 0.26 | -1.17 ± 0.41 |
| UGUAAGCAAUAUUACGAGGG | -3.68 ± 0.27 | -2.14 ± 0.3 |
| UGUAAGCAAUAUUACGAGUC | – | -2.47 ± 0.33 |
| UGUAAGCAAUAUUACGAUUA | -0.52 ± 0.076 | 0.447 ± 0.089 |
| UGUAAGCAAUAUUACGCGAA | -2.68 ± 0.14 | -1.33 ± 0.17 |
| UGUAAGCAAUAUUACGCGUA | -0.832 ± 0.14 | -0.754 ± 0.15 |
